From paper PMC3744504, “Soluble Variants of Human Recombinant Glutaminyl Cyclase” (PLoS ONE, 2013)

Biological target: the molecule itself
Test: SEC; analytical size exclusion chromatography (Superdex 5/150 column) on 50 µl of sample after the Ni-affinity step

B1: wild type human Glutaminyl Cyclase (hQPCT), Ala33-Leu361, His6-tagged (enzyme, UniProt Q16769 33-361, looked up)
chain: ASAWPEEKNYHQPAILNSSALRQIAEGTSISEMWQNDLQPLLIERYPGSPGSYAARQHIMQRIQRLQADWVLEIDTFLSQTPYGYRSFSNIISTLNPTAKRHLVLACHYDSKYFSHWNNRVFVGATDSAVPCAMMLELARALDKKLLSLKTVSDSKPDLSLQLIFFDGEEAFLHWSPQDSLYGSRHLAAKMASTPHPPGARGTSQLHGMDLLVLLDLIGAPNPTFPNFFPNSARWFERLQAIEHELHELGLLKDHSLEGRYFQNYSYGGVIQDDHIPFLRRGVPVLHLIPSPFPEVWHTMDDNEENLDESTIDNLNKILQVFVLEYLHL
notes: human glutaminyl-peptide cyclotransferase (glutaminyl cyclase), residues Ala33-Leu361, cloned in pQE80L; Not glycosylated (E. coli); Apo-protein mass by MALDI 38735 Da; No preparative size exclusion step was applied to the wild type; also called wild type hQPCT; Glutaminyl-peptide Cyclotransferase; not shown: His6, N-terminal, kept
  binding result: binds
